Assay results from patent US20250066759.

System: Bs-CspB-100V80 fusion (ssRNA purification reagent, Isotag) (Bacillus subtilis)
Conditions: percent of spiked dsRNA eluted; greater than 4-log dsRNA removal; dsRNA ELISA

## dsRNA matching the sequence and size of the eGFP ssRNA
  binding: < 4%
